Laboratory results published in US20090053750A1 (CELL GENESYS, published 2009).

Key:
[1] = biological target: T1, class I MHC receptor HLA-A2 on T2 cells (human); assay: T2 cells, anti-HLA-A2 flow cytometry after brefeldin A; Assay #2; 8 hr
T1 construct: detected on the cell surface with a mouse anti-human HLA-A2 monoclonal antibody and goat anti-mouse IgG F(ab')2-FITC; also called HLA-A2 receptor; HLA-A2 class I MHC
Description: (§1) Following overnight incubation, the cells were washed and stained with mouse anti-human HLA-A2 monoclonal antibody for 15 min at 4° C.
(§2) After washing, the cells were incubated with goat anti-mouse IgG (F(ab′)₂)-FITC (Sigma, St. Louis, Mo.) for 15 min at 4° C. The cells were washed and analyzed on a FACSort flow cytometer with CellQuest v2.1 software (Becton-Dickson, San Jose, Calif.). […] Up-regulation of HLA-A2 expression correlates with binding of HLA-A2 by the filamin-B peptides.
(§3) To test the stability of the interaction between the peptides and HLA-A2, fluorescence was monitored for several hours following the addition of brefeldin A to the assay.

[2] = biological target: T1, class I MHC receptor HLA-A2 on T2 cells; assay: T2 cells, anti-HLA-A2 flow cytometry after brefeldin A; Average; 4 hr
Description: as §1, §2, §3

[3] = biological target: T1, class I MHC receptor HLA-A2 on T2 cells; assay: T2 cells, anti-HLA-A2 flow cytometry after brefeldin A; Assay #1; 0 hr
Description: as §1, §2, §3

[4] = biological target: T1, class I MHC receptor HLA-A2 on T2 cells; assay: T2 cells, anti-HLA-A2 flow cytometry after brefeldin A; Assay #2; 18 hr
Description: as §1, §2, §3

[5] = biological target: T1, class I MHC receptor HLA-A2 on T2 cells; assay: T2 cells, anti-HLA-A2 flow cytometry after brefeldin A; Assay #2; 0 hr
Description: as §1, §2, §3

[6] = biological target: T1, class I MHC receptor HLA-A2 on T2 cells; assay: T2 cells, anti-HLA-A2 flow cytometry after brefeldin A; Average; 0 hr
Description: as §1, §2, §3

[7] = biological target: T1, class I MHC receptor HLA-A2 on T2 cells; assay: T2 cells, anti-HLA-A2 flow cytometry after brefeldin A; Average; 18 hr
Description: as §1, §2, §3

[8] = biological target: T1, class I MHC receptor HLA-A2 on T2 cells; assay: T2 cells, anti-HLA-A2 flow cytometry after brefeldin A; Assay #1; 6 hr
Description: as §1, §2, §3

[9] = biological target: T1, class I MHC receptor HLA-A2 on T2 cells; assay: T2 cells pulsed with peptide + b2m, anti-HLA-A2 flow cytometry; Assay #1
Description: as §1, §2

[10] = biological target: T1, class I MHC receptor HLA-A2 on T2 cells; assay: T2 cells, anti-HLA-A2 flow cytometry after brefeldin A; Assay #1; 2 hr
Description: as §1, §2, §3

[11] = biological target: T1, class I MHC receptor HLA-A2 on T2 cells; assay: T2 cells pulsed with peptide + b2m, anti-HLA-A2 flow cytometry; Average
Description: as §1, §2

[12] = biological target: T1, class I MHC receptor HLA-A2 on T2 cells; assay: T2 cells, anti-HLA-A2 flow cytometry after brefeldin A; Average; 2 hr
Description: as §1, §2, §3

[13] = biological target: T1, class I MHC receptor HLA-A2 on T2 cells; assay: T2 cells, anti-HLA-A2 flow cytometry after brefeldin A; Assay #1; 4 hr
Description: as §1, §2, §3

[14] = biological target: T1, class I MHC receptor HLA-A2 on T2 cells; assay: T2 cells, anti-HLA-A2 flow cytometry after brefeldin A; Assay #2; 6 hr
Description: as §1, §2, §3

[15] = biological target: T1, class I MHC receptor HLA-A2 on T2 cells; assay: T2 cells, anti-HLA-A2 flow cytometry after brefeldin A; Assay #1; 18 hr
Description: as §1, §2, §3

[16] = biological target: T1, class I MHC receptor HLA-A2 on T2 cells; assay: T2 cells, anti-HLA-A2 flow cytometry after brefeldin A; Assay #2; 4 hr
Description: as §1, §2, §3

[17] = biological target: T1, class I MHC receptor HLA-A2 on T2 cells; assay: T2 cells, anti-HLA-A2 flow cytometry after brefeldin A; Assay #1; 8 hr
Description: as §1, §2, §3

[18] = biological target: T1, class I MHC receptor HLA-A2 on T2 cells; assay: T2 cells, anti-HLA-A2 flow cytometry after brefeldin A; Assay #2; 2 hr
Description: as §1, §2, §3

[19] = biological target: T1, class I MHC receptor HLA-A2 on T2 cells; assay: T2 cells pulsed with peptide + b2m, anti-HLA-A2 flow cytometry; Assay #2
Description: as §1, §2

[20] = biological target: T1, class I MHC receptor HLA-A2 on T2 cells; assay: T2 cells, anti-HLA-A2 flow cytometry after brefeldin A; Average; 8 hr
Description: as §1, §2, §3

[21] = biological target: T1, class I MHC receptor HLA-A2 on T2 cells; assay: T2 cells, anti-HLA-A2 flow cytometry after brefeldin A; Average; 6 hr
Description: as §1, §2, §3

| Binder | fluorescence index [1] | fluorescence index [2] | fluorescence index [3] | fluorescence index [4] | fluorescence index [5] | fluorescence index [6] | fluorescence index [7] | fluorescence index [8] | fluorescence index [9] | fluorescence index [10] | fluorescence index [11] | fluorescence index [12] | fluorescence index [13] | fluorescence index [14] | fluorescence index [15] | fluorescence index [16] | fluorescence index [17] | fluorescence index [18] | fluorescence index [19] | fluorescence index [20] | further results |
| --- | --- | --- | --- | --- | --- | --- | --- | --- | --- | --- | --- | --- | --- | --- | --- | --- | --- | --- | --- | --- | --- |
| SLQESGLKV [Filamin B peptide #4] | 1 F.I. | 1.28 F.I. | 1.96 F.I. | 1 F.I. | 1.61 F.I. | 1.79 F.I. | 1.05 F.I. | 1.18 F.I. | 1.96 | 1.43 F.I. | 1.79 | 1.4 F.I. | 1.43 F.I. | 1 F.I. | 1.1 F.I. | 1.13 F.I. | 1.09 F.I. | 1.37 F.I. | 1.61 | 1.05 F.I. | fluorescence index [21]: 1.09 F.I. |
| LILGLVWTL [Filamin B peptide #1] | 1.57 F.I. | 2.67 F.I. | 3.46 F.I. | 1.35 F.I. | 2.17 F.I. | 2.82 F.I. | 1.9 F.I. | 3.32 F.I. | 3.46 | 3.17 F.I. | 2.82 | 2.67 F.I. | 3.17 F.I. | 1.83 F.I. | 2.45 F.I. | 2.16 F.I. | 3.22 F.I. | 2.17 F.I. | 2.17 | 2.4 F.I. | fluorescence index [21]: 2.58 F.I. |
| GLAPLEVRV [Filamin B peptide #3] | 2.89 F.I. | 3.79 F.I. | 4.21 F.I. | 2.1 F.I. | 3.64 F.I. | 3.93 F.I. | 2.6 F.I. | 4.27 F.I. | 4.21 | 4.3 F.I. | 3.93 | 3.82 F.I. | 4.22 F.I. | 2.94 F.I. | 3.1 F.I. | 3.35 F.I. | 4.01 F.I. | 3.33 F.I. | 3.64 | 3.45 F.I. | fluorescence index [21]: 3.61 F.I. |

Further lines, with some results ahead:

| fluorescence index [1] | fluorescence index [2] | fluorescence index [3] | fluorescence index [4] | fluorescence index [5] | fluorescence index [6] | fluorescence index [7] | fluorescence index [8] | fluorescence index [9] | fluorescence index [10] | fluorescence index [11] | fluorescence index [12] | fluorescence index [13] | fluorescence index [14] | fluorescence index [15] | fluorescence index [16] | fluorescence index [17] | fluorescence index [18] | fluorescence index [19] | fluorescence index [20] | Binder | further results |
| --- | --- | --- | --- | --- | --- | --- | --- | --- | --- | --- | --- | --- | --- | --- | --- | --- | --- | --- | --- | --- | --- |
| 1 F.I. | 1.47 F.I. | 2.67 F.I. | 1 F.I. | 1.96 F.I. | 2.32 F.I. | 1.05 F.I. | 1.23 F.I. | 2.67 | 1.74 F.I. | 2.32 | 1.67 F.I. | 1.65 F.I. | 1 F.I. | 1.1 F.I. | 1.29 F.I. | 1.09 F.I. | 1.6 F.I. | 1.96 | 1.05 F.I. | GQGDVMVFV [Filamin B peptide #6] | fluorescence index [21]: 1.12 F.I. |
| 1 F.I. | 1.16 F.I. | 1.38 F.I. | 1 F.I. | 1.25 F.I. | 1.32 F.I. | 1.13 F.I. | 1.09 F.I. | 1.38 | 1.24 F.I. | 1.32 | 1.16 F.I. | 1.22 F.I. | 1 F.I. | 1.25 F.I. | 1.1 F.I. | 1.09 F.I. | 1.07 F.I. | 1.25 | 1.05 F.I. | KLILGLVWT [Filamin B peptide #7] | fluorescence index [21]: 1.05 F.I. |
